As usually defined, the EC50 is the concentration that produces a half-maximal response. Higher therefore signals a less potent agent.

The target of assay [1] is T1, human GITR, membrane bound (on activated human T cells or on 3A9-hGITR cells) (UniProt Q9Y5U5 26-241).
T1 chain: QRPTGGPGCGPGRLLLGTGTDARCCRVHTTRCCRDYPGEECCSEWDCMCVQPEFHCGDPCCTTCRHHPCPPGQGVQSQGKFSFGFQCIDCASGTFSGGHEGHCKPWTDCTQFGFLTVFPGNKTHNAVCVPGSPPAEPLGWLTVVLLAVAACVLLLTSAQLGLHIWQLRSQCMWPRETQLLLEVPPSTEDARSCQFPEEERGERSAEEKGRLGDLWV
Description: FACS.

The target of assay [2] is T2, cynomolgus GITR, membrane bound (on activated cynomolgus T cells).
T2 chain: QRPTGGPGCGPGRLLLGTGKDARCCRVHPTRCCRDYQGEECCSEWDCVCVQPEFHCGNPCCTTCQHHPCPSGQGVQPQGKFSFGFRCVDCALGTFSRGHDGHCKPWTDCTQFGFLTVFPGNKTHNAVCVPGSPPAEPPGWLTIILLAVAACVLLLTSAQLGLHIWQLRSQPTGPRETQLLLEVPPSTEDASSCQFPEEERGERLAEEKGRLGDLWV
Description: FACS. A general note: Flow cytometry measures light scatter and fluorescence of single cells or particles in a stream.

B1: anti-GITR.g2.g1.1f (antibody)
chain 1: QVQLVESGGGVVQPGRSLRLSCAASGFTFSSYGMHWVRQAPGKGLEWVAVIWYEGSNKYYADSVKGRFTISRDNSKNTLYLQMNSLRAEDTAVYYCARGGSMVRGDYYYGMDVWGQGTTVTVSSASTKGPSVFPLAPCSRSTSESTAALGCLVKDYFPEPVTVSWNSGALTSGVHTFPAVLQSSGLYSLSSVVTVPSSNFGTQTYTCNVDHKPSNTKVDKTVERKCCVECPPCPAPPVAGPSVFLFPPKPKDTLMISRTPEVTCVVVDVSHEDPEVKFNWYVDGVEVHNAKTKPREEQYNSTYRVVSVLTVLHQDWLNGKEYKCKVSNKALPSSIEKTISKAKGQPREPQVYTLPPSREEMTKNQVSLTCLVKGFYPSDIAVEWESNGQPENNYKTTPPVLDSDGSFFLYSKLTVDKSRWQQGNVFSCSVMHEALHNHYTQKSLSLSPG
chain 2: not shown
B1 displayed a 50% effective concentration (EC50) in assay [1] of 0.163 nM.

B2: 3C3 (antibody, V domains shown)
VH: QVQLQQWGAGLLKPSETLSLTCAVYGGSFSGYYWTWIRQPPGKGLEWIGKINHSGNTNYNPSLKSRVTISVDTSKNQFSLKLSSVTAADTAVYYCARLGAFDAFDIWGQGTMVTVSS
VL: DIQMTQSPSSLSASVGDRVTITCRASQGISSWLAWYQQKPEKAPKSLIYAASSLQSGVPSRFSGSGSGTDFTLTISSLQPEDFATYYCQQYNSYPYTFGQGTKLEIKR
Take B2: the EC50 in assay [2] stood at 142 nM.

B3: anti-GITR.g2 (antibody)
chain 1: QVQLVESGGGVVQPGRSLRLSCAASGFTFSSYGMHWVRQAPGKGLEWVAVIWYEGSNKYYADSVKGRFTISRDNSKNTLYLQMNSLRAEDTAVYYCARGGSMVRGDYYYGMDVWGQGTTVTVSSASTKGPSVFPLAPCSRSTSESTAALGCLVKDYFPEPVTVSWNSGALTSGVHTFPAVLQSSGLYSLSSVVTVPSSNFGTQTYTCNVDHKPSNTKVDKTVERKCCVECPPCPAPPVAGPSVFLFPPKPKDTLMISRTPEVTCVVVDVSHEDPEVQFNWYVDGVEVHNAKTKPREEQFNSTFRVVSVLTVVHQDWLNGKEYKCKVSNKGLPAPIEKTISKTKGQPREPQVYTLPPSREEMTKNQVSLTCLVKGFYPSDIAVEWESNGQPENNYKTTPPMLDSDGSFFLYSKLTVDKSRWQQGNVFSCSVMHEALHNHYTQKSLSLSPGK
chain 2: not shown
In turn, B3 returned an EC50 in assay [1] of 0.277 nM.

The record behind these values is patent US20220175921A1 (published 2022).
